T1: FcγRIIa R (human, UniProt P12318 34-217)
T1 construct: extracellular domain; Soluble His-tagged extracellular domain expressed in FreeStyle293 cells; analyte in Biacore; also called FcgRIIa R; FcgRIIaR; not shown: His tag attached to the C terminus
T1 sequence (looked up): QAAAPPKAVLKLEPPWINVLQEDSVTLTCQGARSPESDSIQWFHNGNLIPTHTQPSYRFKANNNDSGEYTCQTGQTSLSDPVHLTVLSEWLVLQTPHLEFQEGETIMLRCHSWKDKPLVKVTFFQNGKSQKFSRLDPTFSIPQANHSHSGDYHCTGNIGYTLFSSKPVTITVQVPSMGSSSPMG

T2: FcγRIIb (human, UniProt P31994 43-217)
T2 construct: extracellular domain; Soluble His-tagged extracellular domain expressed in FreeStyle293 cells; analyte in Biacore; also called FcgRIIb; 2b; not shown: His tag attached to the C terminus
T2 sequence (looked up): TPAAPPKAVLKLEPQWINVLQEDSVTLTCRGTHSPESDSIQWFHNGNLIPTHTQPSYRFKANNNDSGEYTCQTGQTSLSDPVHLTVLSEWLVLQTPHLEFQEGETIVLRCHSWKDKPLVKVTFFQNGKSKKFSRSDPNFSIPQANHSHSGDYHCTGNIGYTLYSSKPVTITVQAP

T3: FcγRIIb (human, UniProt P31994 43-217)
T3 construct: extracellular domain; also called FcgRIIb; 2b
T3 sequence (looked up): T2 sequence (looked up)

B1: GpH7-A5/GpH7-B3 variant S298_11K/GpL16-k0 (antibody, human IgG1, kappa)
heavy 1: not shown
heavy 2: not shown
light: DIVMTQSPLSLPVTPGEPASISCQASESLVHSNRNTYLHWYLQKPGQSPQLLIYKVSNRFSGVPDRFSGSGSGTDFTLKISRVEAEDVGVYYCSQNTHVPPTFGQGTKVEIERTVAAPSVFIFPPSDEQLKSGTASVVCLLNNFYPREAKVQWKVDNALQSGNSQESVTEQDSKDSTYSLSSTLTLSKADYEKHKVYACEVTHQGLSSPVTKSFNRGEC
notes: Heterodimerized anti-glypican-3 IgG1 antibody; alteration only in the GpH7-B3 H chain; position in EU numbering; also called He Ab
B2: GpH7-A5/GpH7-B3 variant P329_16H/GpL16-k0 (antibody, human IgG1, kappa)
heavy 1: not shown
heavy 2: not shown
light: B1 light
notes: as for B1
B3: GpH7-A5/GpH7-B3 variant S298_10E/GpL16-k0 (antibody, human IgG1, kappa)
heavy 1: not shown
heavy 2: not shown
light: B1 light
notes: as for B1
B4: GpH7-A5/GpH7-B3 variant S298_19Q/GpL16-k0 (antibody, human IgG1, kappa)
heavy 1: not shown
heavy 2: not shown
light: B1 light
notes: as for B1
B5: GpH7-A5/GpH7-B3 variant Y300_12R/GpL16-k0 (antibody, human IgG1, kappa)
heavy 1: not shown
heavy 2: not shown
light: B1 light
notes: as for B1
B6: GpH7-A5/GpH7-B3 variant V266_01G/GpL16-k0 (antibody, human IgG1, kappa)
heavy 1: not shown
heavy 2: not shown
light: B1 light
notes: mutation in the GpH7-B3 chain only; also called He Ab
B7: GpH7-A5/GpH7-B3 variant D265_08L/GpL16-k0 (antibody, human IgG1, kappa)
heavy 1: not shown
heavy 2: not shown
light: B1 light
notes: as for B6
B8: GpH7-A5/GpH7-B3 variant D265_06M/GpL16-k0 (antibody, human IgG1, kappa)
heavy 1: not shown
heavy 2: not shown
light: B1 light
notes: as for B6
B9: GpH7-A5/GpH7-B3 variant D265_07I/GpL16-k0 (antibody, human IgG1, kappa)
heavy 1: not shown
heavy 2: not shown
light: B1 light
notes: as for B6
B10: GpH7-A5/GpH7-B3 variant D265_03V/GpL16-k0 (antibody, human IgG1, kappa)
heavy 1: not shown
heavy 2: not shown
light: B1 light
notes: as for B6
B11: GpH7-A5/GpH7-B3 variant D265_10E/GpL16-k0 (antibody, human IgG1, kappa)
heavy 1: not shown
heavy 2: not shown
light: B1 light
notes: as for B6
B12: GpH7-A5/GpH7-B3 variant D265_04F/GpL16-k0 (antibody, human IgG1, kappa)
heavy 1: not shown
heavy 2: not shown
light: B1 light
notes: as for B6
B13: GpH7-A5/GpH7-B3 variant D265_11K/GpL16-k0 (antibody, human IgG1, kappa)
heavy 1: not shown
heavy 2: not shown
light: B1 light
notes: as for B6

Target: T1, FcγRIIa R
Test: ratio of He/Con_2aR to He/Con_2b (binding to FcγRIIb as reference); SPR

Compared with B1, B2 is lower in “He_2aR/2b (IIaR/IIb)” value: 1.55 for the first, 1.45 for the second.

Compared with B3, B4 is lower in “He_2aR/2b (IIaR/IIb)” value: 1.37 for the first, 1.3 for the second.

With B5 the “He_2aR/2b (IIaR/IIb)” value was 1.34.

Target: T1, FcγRIIa R
Test: SPR (Biacore), antibody captured via antigen peptide, FcγR as analyte
Method: (§1) The heterodimerized antibodies He Abs in which one of the H chains was introduced with an alteration were assayed for their binding activities to each activating FcγR and inhibitory FcγR according to the method described in Example 4. […] The activating FcγRs in FIGS. 26, 27, 28, and 29 are FcγRIa, FcγRIIa (R), FcγRIIa (H), and FcγRIIIa, respectively.
(§2) Analysis of interaction between objective antibody and the FcγR was carried out using Biacore T100 (GE Healthcare). HBS-EP+ (GE Healthcare) was used as the running buffer, and the measurement temperature was set to 25° C. Chips produced by immobilizing the antigen peptide by the amine coupling method to a Series S Sencor Chip CM5 (GE Healthcare), or alternatively, chips produced by allowing preliminarily biotinylated antigen peptides to interact with and immobilize onto a Series S Sensor Chip SA (certified) (GE Healthcare) were used. Antibodies of interest were captured onto an antigen peptide-immobilized chip, and allowed to interact to each FcγR diluted with running buffer. To regenerate and repeatedly use the chip, the antibodies captured on the chip were washed off by reacting 10 mM glycine-HCl, pH 1.5.

Compared with B1, B2 is lower in “He/Con_2aR (IIaR binding relative to GpH7-A5/GpH7-B3/GpL16-k0)” value: 95.1 % of control (control = 100) for the first, 56.7 % of control (control = 100) for the second.

Compared with B3, B4 is higher in “He/Con_2aR (IIaR binding relative to GpH7-A5/GpH7-B3/GpL16-k0)” value: 65.1 % of control (control = 100) for the first, 95 % of control (control = 100) for the second.

B5 was tested, and the “He/Con_2aR (IIaR binding relative to GpH7-A5/GpH7-B3/GpL16-k0)” value was 55.1 % of control (control = 100).

Target: T2, FcγRIIb
Test: as above
Method: as §1, §2

Going from B1 to B2, the “He/Con_2b (IIb binding relative to GpH7-A5/GpH7-B3/GpL16-k0)” value falls from 61.3 % of control (control = 100) to 39.1 % of control (control = 100).

First: B3
Second: B4
The “He/Con_2b (IIb binding relative to GpH7-A5/GpH7-B3/GpL16-k0)” value of the first is lower: 47.6 % of control (control = 100) for the first, 73.3 % of control (control = 100) for the second.

With B5 the “He/Con_2b (IIb binding relative to GpH7-A5/GpH7-B3/GpL16-k0)” value was 41.2 % of control (control = 100).

Target: T3, FcγRIIb
Test: SPR (Biacore), relative binding

First: B6
Second: B7
The He/Con_2b of the first is higher: 51.5 % of GpH7-A5/GpH7-B3/GpL16-k0 for the first, 4.6 % of GpH7-A5/GpH7-B3/GpL16-k0 for the second.

First: B8
Second: B9
The He/Con_2b of the first is higher: 10 % of GpH7-A5/GpH7-B3/GpL16-k0 for the first, 1.3 % of GpH7-A5/GpH7-B3/GpL16-k0 for the second.

Compared with B10, B11 is higher in He/Con_2b: 3.2 % of GpH7-A5/GpH7-B3/GpL16-k0 for the first, 38.2 % of GpH7-A5/GpH7-B3/GpL16-k0 for the second.

First: B12
Second: B13
The He/Con_2b of the first is lower: 3.2 % of GpH7-A5/GpH7-B3/GpL16-k0 for the first, 14.9 % of GpH7-A5/GpH7-B3/GpL16-k0 for the second.

Target: T4, FcγRIIIa (human, UniProt P08637 17-208)
T4 construct: extracellular domain; also called FcgRIIIa; 3a
Test: SPR (Biacore), relative binding

T4 sequence (P08637 17-208): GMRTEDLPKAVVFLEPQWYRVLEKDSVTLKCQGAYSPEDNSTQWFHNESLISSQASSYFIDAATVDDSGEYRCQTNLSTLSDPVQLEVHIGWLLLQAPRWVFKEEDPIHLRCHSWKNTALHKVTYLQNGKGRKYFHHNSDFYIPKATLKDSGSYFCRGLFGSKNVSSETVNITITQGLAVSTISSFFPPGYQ

Compared with B6, B7 is lower in He/Con_3a: 24 % of GpH7-A5/GpH7-B3/GpL16-k0 for the first, 0 % of GpH7-A5/GpH7-B3/GpL16-k0 for the second.

Going from B8 to B9, the He/Con_3a falls from 2.6 % of GpH7-A5/GpH7-B3/GpL16-k0 to -0.8 % of GpH7-A5/GpH7-B3/GpL16-k0.

First: B10
Second: B11
The He/Con_3a of the first is lower: 0.6 % of GpH7-A5/GpH7-B3/GpL16-k0 for the first, 20.1 % of GpH7-A5/GpH7-B3/GpL16-k0 for the second.

Going from B12 to B13, the He/Con_3a rises from 0 % of GpH7-A5/GpH7-B3/GpL16-k0 to 2.5 % of GpH7-A5/GpH7-B3/GpL16-k0.

Target: T4, FcγRIIIa
Test: SPR; He/Con_3a divided by He/Con_2b (FcγRIIIa against FcγRIIb)

Compared with B6, B7 is lower in “He_3a/2b (IIIa/IIb)” value: 0.47 ratio for the first, 0 ratio for the second.

First: B8
Second: B9
The “He_3a/2b (IIIa/IIb)” value of the first is higher: 0.26 ratio for the first, -0.61 ratio for the second.

First: B10
Second: B11
The “He_3a/2b (IIIa/IIb)” value of the first is lower: 0.19 ratio for the first, 0.53 ratio for the second.

Going from B12 to B13, the “He_3a/2b (IIIa/IIb)” value rises from 0 ratio to 0.17 ratio.
